Series [1] concerns the target T1, trpE-RB23-27 fusion (Homo sapiens) (UniProt P06400).
T1 sequence: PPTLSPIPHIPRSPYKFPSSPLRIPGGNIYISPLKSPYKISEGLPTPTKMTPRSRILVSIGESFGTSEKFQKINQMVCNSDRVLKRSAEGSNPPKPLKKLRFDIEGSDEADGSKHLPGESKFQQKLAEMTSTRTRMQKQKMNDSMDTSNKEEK
The conditions noted are these: Southwestern blot; stated as RB19-27 having 20-fold higher affinity; 50 mM NaCl, pH 7.0, room temperature.

Series [2] has as its target T2, trpE-RB19-27 fusion (Homo sapiens) (UniProt P06400).
T2 sequence: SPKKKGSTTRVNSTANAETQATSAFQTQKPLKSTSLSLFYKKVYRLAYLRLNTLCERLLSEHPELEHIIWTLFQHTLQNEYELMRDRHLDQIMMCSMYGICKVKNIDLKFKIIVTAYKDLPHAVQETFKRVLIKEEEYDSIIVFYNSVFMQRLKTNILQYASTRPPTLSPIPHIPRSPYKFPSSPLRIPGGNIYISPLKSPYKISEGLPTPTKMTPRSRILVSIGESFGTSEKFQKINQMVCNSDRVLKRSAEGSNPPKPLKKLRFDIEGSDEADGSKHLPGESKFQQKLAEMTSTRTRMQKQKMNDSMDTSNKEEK
The conditions noted are these: Southwestern blot; 20-fold higher affinity than either subregion; 50 mM NaCl, pH 7.0, room temperature.

The target in series [3] is T3, trpE-RB19-22 fusion (Homo sapiens) (UniProt P06400).
T3 sequence: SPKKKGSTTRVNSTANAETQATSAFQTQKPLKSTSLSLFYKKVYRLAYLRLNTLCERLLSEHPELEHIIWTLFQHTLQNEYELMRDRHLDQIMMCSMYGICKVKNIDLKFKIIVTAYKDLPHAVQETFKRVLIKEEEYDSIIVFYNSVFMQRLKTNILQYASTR
The conditions noted are these: Southwestern blot; stated as RB19-27 having 20-fold higher affinity; 50 mM NaCl, pH 7.0, room temperature.

Regarding “pGEM1 plasmid DNA linearized by EcoRI, random-primed probe”, the binding signal (fraction of RB19-27) in series [1] and in series [3] was 0.05 each time. Further, the binding signal (fold vs RB19-22 or RB23-27) in series [2] came to 20.

Values taken from patent publication US6051396.
